PMC9719863 (Molecular Metabolism, 2022)
*1 amine or outer side, *2 acyl side, *3 side chain or, on linkers, in order; H or OH if unused. Where no end group is shown, it is not given here. Side-chain parts run from the residue outwards. The star is where a group is joined. C18 diacid = O=C(O)CCCCCCCCCCCCCCCCC(=O)*; γGlu = O=C(O)[C@H](CCC(=O)[*:2])N[*:1]; Palmitoyl = CCCCCCCCCCCCCCCC(=O)*; AEEA = NCCOCCOCC(=O)O

T1: human GIP receptor (human, UniProt P48546 22-466)
T1 sequence: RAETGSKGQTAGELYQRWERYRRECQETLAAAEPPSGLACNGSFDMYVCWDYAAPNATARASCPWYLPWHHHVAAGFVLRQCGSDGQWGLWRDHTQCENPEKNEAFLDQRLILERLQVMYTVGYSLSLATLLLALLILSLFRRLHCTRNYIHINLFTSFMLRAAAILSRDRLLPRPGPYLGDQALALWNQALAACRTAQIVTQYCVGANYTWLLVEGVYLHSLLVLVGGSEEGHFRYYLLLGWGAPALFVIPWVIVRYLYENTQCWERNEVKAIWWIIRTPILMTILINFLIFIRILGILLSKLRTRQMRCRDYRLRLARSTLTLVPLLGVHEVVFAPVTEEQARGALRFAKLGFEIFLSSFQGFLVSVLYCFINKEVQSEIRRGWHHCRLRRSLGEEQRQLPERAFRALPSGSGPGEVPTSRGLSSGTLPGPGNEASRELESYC

T2: mouse GIP receptor (mouse, UniProt Q0P543 19-460)
T2 sequence: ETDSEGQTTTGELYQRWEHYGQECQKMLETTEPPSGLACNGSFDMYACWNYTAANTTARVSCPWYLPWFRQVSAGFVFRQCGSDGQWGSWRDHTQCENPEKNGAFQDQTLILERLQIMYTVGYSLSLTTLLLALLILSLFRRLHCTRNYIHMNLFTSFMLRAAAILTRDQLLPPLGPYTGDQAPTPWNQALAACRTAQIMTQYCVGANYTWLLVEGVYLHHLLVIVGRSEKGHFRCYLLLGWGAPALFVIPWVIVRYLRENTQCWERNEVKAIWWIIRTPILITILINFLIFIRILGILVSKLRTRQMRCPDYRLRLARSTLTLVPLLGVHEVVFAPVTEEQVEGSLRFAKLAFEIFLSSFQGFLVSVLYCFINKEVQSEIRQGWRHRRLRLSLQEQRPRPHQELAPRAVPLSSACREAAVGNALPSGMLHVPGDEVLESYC

B1: [L14, R18, E21] hGIP(3-30)-K11 (γE-C16) (peptide)
peptide: EGTFISDYK([γGlu-Palmitoyl])IALDKIRQQEFVNWLLAQK-NH2
modifications: N-terminus assumed
SMILES: CCCCCCCCCCCCCCCC(=O)N[C@@H](CCC(=O)NCCCC[C@H](NC(=O)[C@H](Cc1ccc(O)cc1)NC(=O)[C@H](CC(=O)O)NC(=O)[C@H](CO)NC(=O)[C@@H](NC(=O)[C@H](Cc1ccccc1)NC(=O)[C@@H](NC(=O)CNC(=O)[C@@H](N)CCC(=O)O)[C@@H](C)O)[C@@H](C)CC)C(=O)N[C@H](C(=O)N[C@@H](C)C(=O)N[C@@H](CC(C)C)C(=O)N[C@@H](CC(=O)O)C(=O)N[C@@H](CCCCN)C(=O)N[C@H](C(=O)N[C@@H](CCCNC(=N)N)C(=O)N[C@@H](CCC(N)=O)C(=O)N[C@@H](CCC(N)=O)C(=O)N[C@@H](CCC(=O)O)C(=O)N[C@@H](Cc1ccccc1)C(=O)N[C@H](C(=O)N[C@@H](CC(N)=O)C(=O)N[C@@H](Cc1c[nH]c2ccccc12)C(=O)N[C@@H](CC(C)C)C(=O)N[C@@H](CC(C)C)C(=O)N[C@@H](C)C(=O)N[C@@H](CCC(N)=O)C(=O)N[C@@H](CCCCN)C(N)=O)C(C)C)[C@@H](C)CC)[C@@H](C)CC)C(=O)O

How the values were obtained:
human GIP receptor [1] = target: T1, human GIP receptor; assay: cell-based or functional assay
mouse GIP receptor [2] = target: T2, mouse GIP receptor; assay: cell-based or functional assay
human GIP receptor [3] = target: T1, human GIP receptor; assay: radioligand binding
mouse GIP receptor [4] = target: T2, mouse GIP receptor; assay: radioligand binding

Binder | maximal % inhibition of GIP-induced cAMP in BHK cells expressing hGIPR (human GIP receptor [1]) | maximal % inhibition of GIP-induced cAMP in BHK cells expressing mGIPR (mouse GIP receptor [2]) | IC50 (human GIP receptor [3]) | IC50 (mouse GIP receptor [4])
Ac-TFISDYK([γGlu-Palmitoyl])IALDKIRQQEFVNWLLAQKG [[Nα-Ac, L14, R18, E21] hGIP(5-31)-K11 (γE-C16)] | 100% | 100% |  | 
TFISDYSIALDKIRQQEFVNWLLAQKG [[L14, R18, E21] hGIP(5-31)] | 81% | 93% | 1.8 nM | 18.7 nM
Ac-TFISDK([γGlu-Palmitoyl])SIALDKIRQQEFVNWLLAQKG [[Nα-Ac, L14, R18, E21] hGIP(5-31)-K10 (γE-C16)] | 100% | 100% | 0.21 nM | 1 nM
FISDYSIALDKIRQQEFVNWLLAQKG [[L14, R18, E21] hGIP(6-31)] | 83% | 91% | 6.45 nM | 37.1 nM
B1 | 100% | 97% | 0.36 nM | 2.1 nM
Ac-TFISDYK(C18 diacid)IALDKIRQQEFVNWLLAQKG [[Nα-Ac, L14, R18, E21] hGIP(5-31)-K11 (-C18-OH)] | 100% | 100% | 0.9 nM | 5.4 nM
EGTFISDYSIAMDKIHQQDFVNWLLAQK-NH2 [hGIP(3-30) amide] | 81% | 73% | 1.55 nM | 
Ac-TFISDYK([AEEA-AEEA-C18 diacid])IALDKIRQQEFVNWLLAQKG [[Nα-Ac, L14, R18, E21] hGIP(5-31)-K11(OEG2-C18-OH)] | 100% | 100% | 2.49 nM | 8.7 nM
Ac-TFISDYK([AEEA-AEEA-γGlu-C18 diacid])IALDKIRQQEFVNWLLAQKG [[Nα-Ac, L14, R18, E21] hGIP(5-31)-K11(OEG2-γE-C18-OH)] | 100% | 100% | 3.83 nM | 24.8 nM
